Assay: label from the status in PepcDB records

Sequence | protein production
MHSPQISPPIAPSTPLLAGWRSAGKAPEAAIRGEAVSLQPLDAPRHGAALFRLFAGDDSHWEHLPYGPFEDEDAFITWLALTVAQSDTALYVVCAKDSDQALGFLGYRQMVQAHGAIEIGHVNFSPALRRTRLATEAVFLLLKTAFELGYRRCEWRCDSRNAASAAAARRFGFQFEGTLRQAMVVKRRNRDTHVFSMLDGEWDALK | not failed
MGLGVACSSSQPPGSTTEANGPAVSSGPSLFLLHTTPADGLVLHDARTDESRTLAAGATAKPARAVSPSGRHLAFSYATADSSHLTLLDLTTQQAHRVHAAAGTSVAYSLAWHPNQERLAVGYYRPTDDGGRGPGGLQVVTPDGTTRDVGCSSVREVLHWLPDGSLAARTDDNLYVVDAGDCATQASLDIRRMHHLRYAPTGQQMAYIYRELEYDRDRGEYVPDSSFVLSGPDGTNPETLFGNERHARHHRWAPETNEVALDVRVEASGHRQVVVYDGSRPTFLVSPDQTTADQVHPRWSPSGNRIAFTLRSDASSQAAVRVKGQTRRLGRVDGAVWGWLDDRSVVVPGPDSVRVKALNGTTRYAHPTPQTLLHVWRRSAS | failed
SNTPSAEADWSPGLELHPDYKTWGPEQVCSFLRRGGFEEPVLLKNIRENEITGALLPCLDESRFENLGVSSLGERKKLLSYIQRLVQIHVDTMKVI | not failed
MKINKLLFGMLLLLLASCGSSRKVEKQSEQVAVQEINLTPEQQRKYDYFFLEASRLKVKKEYTAAFDLLQHCLAINPTGSAALYEIAQYYLFLKQAPQGQEALEKAVAYAPDNYWYSQALAGLYQQQDQKEKAIGILEKMATRFPAKQDPLFNLLDLYNQKEDYGKVISTLNRIEEKTGKNEQITMEKFRIYLQMKDDKKAFEEIESLVNEYPMDYRYQVILGDVYMQNGKKQEAYDTYKKVLAAEPDNPMALFSLASYYEQTGQKELFEQQMDTLLLNRKVPSDTKVNVMRQFIVQSEQEGKDSTQVIGLFDRMMQMDMDDVQIPMLYAQYLLSKGMEAQSIPVLEQVVQIDPTNKAARMTLLGSAIRKNDYEQVIKICEPGIEATPDALEFYFYLVIAYNQAEHWDDVLEVSRKALEHVTPESDKQMVSDFYTIIGDVYHTKKLMKEAYAAYDSALVYNPSNIGALNNYAYYLSVERRDLDKAEEMSYKTVKAAPNNATYLDTYAWILFEKGNYAEARIYIDDAIKNTKPEEESSVVFEHCGDIYFMTGDVEGALKYWKKALELGTESKTLKQKIEKKKYIAE | failed
MTTIRVENLSKIFKKGKTEVKAVDNVSITIDSGMAFGVLGPSGHGKTTFLRLIAGLEEPTSGYIYFDNEAVSSPRRVMMSPEKRGIAMVFQNWALYPNMTVFDNIAFPLKLAKVPKDKIENKVKEVSEELGLSGVLNRYPKELSGGQMQRTAIARALVKDPKVLLLDEPFSNLDAQIRESARALVRKIQRERKLTTLIVSHDPADIFAIANKAGVIVNGKFAQIGTPTEIYEYPATDLIARLTGEINLIQAKIIENNAIIANLKVPLNNMELKGQSNIVIGLRPDDLTLSDTLLDKYIDMGIVKVKLVSYGAGIFKIVVSPITDENIDIIVDAEEPLETGIETHLLAKPNKVKIFDLNGSNLITSKTQIIK | failed
MNQQLLAKTFVELADNLVADFDLIDFLRLLTDRCVGMLDASAAGVLLADRNGELRVMAASDEQVRLLELFQLQNDEGPCLDCFRTGAPVTVPDLSAVTARWPRFAVQARRSGFGAVQALPMRLRDEVVGALNLFRATPGPFDPAATPLAQALADVATISLLQQRTAHRSTVLNEQLQTALNSRVLIEQAKGKLAERQGVDMERAFTALRTYARAHNRRLSDVARAFIDNSEPLTGLGS | failed
MHDALRAYIEKYASEKISDADFEEVKKAFTFKRYKKGQFLLQEGEVSKYTAFVLKGSMRQYSVDAKGTEHIIHFGIENWWVGDRESSTMLTPSNYNIDAIEDTEVLLTTSEDLQQLTAALPVIGKMVNTMNQRNFIASQKRIHDALSLTAEERYLELLKNHPDFLQRFPQTMLASYLGITAETYSRIRKKALK | not failed
MVNIFWFSLAVIIYSYFIYPFILLIFSAVKQAISDTRYLWKKSQRRVVDKDNLPPVSIIIAAYNEESCIKARVENLLSLDYPQDKLTILIGSDGSQDKTAEILTSFDAVNLKVHIFEKNRGKMSVLNDLVEQVNSDYIVFSDANTHFNKNTIEYLVRHFNHDNIGAVCGELHLVDVDSGDNKDNIYWRYEQVLKFHEARLNALQGANGAIYAIRKELFIPLPANTIVDDFQIAMNVAKQGFRLIYDPEAIAIEEIAPNLQAEEGRRVRIGLGNYQALFTMAWALNPLLGWRFIAYISHKVCRWFVPHLMLITLISNLLLISNPLYQLLFIGQILFYSVAFYGIKKQQKRQKVSSIIGIIAFFVSMNIALMRGFIRYFSSNVQGTWERTTR | failed
MFKKGVVPSQGLRIIIVGCGKVGRTLVEQLGKEGHDITIIDKNRERISQVSNIYDVMGIAGNGASYKILQEAGIDDADLIIAVTGSDELNLLCCTIATQVGNCAAIARVRTPEYSQEAKYLRDKLGLALIINPELEAAIEMAHILHLPSSLEVTNFAHGQAQLIKYEIPEGSILDGTKLMDLGTRHHANILIGAVERDDEVTIPSGDFVLRKGDKLSFVGERRHTKEFFSHIGVNTHSVKNTLIIGGGKAAYYLAKQLISRGIKVKIIENSFERCEELSILLPDAVIINGDGTEQALLKEEGIETCQSFVPLTGIDEENIMLTLYAKQVSNAKVITKLNRITFTNVINSLDLGSVISPKYITSEAIIAYVRAKKNSMNCNIETLYHMYDSRVEAIEFFVSENSNVTDIPLRDLKLKKHLLICFINRNGKIIIPTGNDCIQKNDTVMIITTNTGFTNLQDIME | failed
MPEHTPAPTPHRAVYGFAFYMLFTVLFLVYVTWALLPVEFGLHSYLPDKYFAVFVPFLVLVFAWFFAFLIYPAINLSMTVDVDSIASVVDPKLALPKGTEFTSWSQLQKGKVSQDSASKKASPVNCNLCRTFHQPVTRAPIPPLRFLDLQEVNTAYYN | failed
MPINFHDANNKYTYAQRNAHISWREMIKSITSIQNKRIVDIGCGGGIYTKELALMGAKSVVGIDFSKEILQAAKENCSGFSNISFIHGDAHSTPYPNDTFDIVISRAVIHHLQDIPTFLREASRILKKNGVLIVQDRTIEDCTIPGSPEHIRGYFFSTFPKLIETESKRRPKTTTIQQELQKYFLHVFPTQTQWEVRKIHDSVEALLQDLSPRTGRSILYELTDYELSQLLQQVQTALQNVSPIIEKDRWTIWSAMKL | failed
MSEPVIKSLLDTDMYKITMHAAVFTNFPDVTVTYKYTNRSSQLTFNKEAINWLKEQFSYLGNLRFTEEEIEYLKQEIPYLPSAYIKYISSSNYKLHPEEQISFTSEEIEGKPTHYKLKILVSGSWKDTILYEIPLLSLISEAYFKFVDIDWDYENQLEQAEKKAETLFDNGIRFSEFGTRRRRSLKAQDLIMQGIMKAVNGNPDRNKSLLLGTSNILFAKKYGVKPIGTVAHEWVMGVASISEDYLHANKNAMDCWINTFGAKNAGLALTDTFGTDDFLKSFRPPYSDAYVGVRQDSGDPVEYTKKISHHYHDVLKLPKFSKIICYSDSLNVEKAITYSHAAKENGMLATFGIGTNFTNDFRKKSEPQVKSEPLNIVIKLLEVNGNHAIKISDNLGKNMGDPATVKRVKEELGYTERSWSGDNEAHRWTZ | not failed
MMAKIDVELKKLHQILVDRDYFYQVPDYQRPYVWDKDHLGALIDDLVGSYTNNREDEYFCGSIVIVENQKDKRWDVVDGQQRLTSFIILACTILRLYKHSLGQESKDFIEDSIYDRYDKEKERLKFLTAQNYNSIFENTVLNHLEFEDNIKKSELNKKFEENTYLRNAYYFKELLNESVENGSISDIDDFVKWFYEHIVLTRIICFEQDSAMQIFQVLNDRGQPLSPIDILKSSLMQEIKQDSEKRKDFITTWDKLVEACKSVEGVDIDLEDFFNMYLEYADPSTSKKRADKGLKKVFKDSKKDACGFIYEISEFMKAYTALLKKQDRYVYLLRYLPSRYWASILTTALYVKYPDFDALKKLLVSYYYQTWIAGGTITRIKQTSINIIKNVKSNKSVETIKELILNSIDSYNTFDQYLYNLWDSSSVYHSKWVRPVLALANYFMADEEKPHFIAMDAETQVEHILPQTPKRGSQWNADFDKEKREEWVNNIANLTLLKRKKNAHALNGDFDEKRKIYGGKDTSKVISCYDITKELYSNYRKWNEKSLQERYKSLYNTITPVLHIEGQEDDFEDDFDLE | failed
MTDPSQMQAEELLSFLEEGGTLKMLHDVSADTIEHIYAVGYNFFQSGKIEQAAKVFQLLSMLDHYQARFFIGLGAARQELGEYLQAIDAYSYAALVDINDPRPPFHSAECHLKLEQLTEAESGFYSAKEMSAGKSQYADLHQRAGIMLEAVRNKRSNLEHHHHHH | not failed

Source: a protein production outcome set (Wang et al. 2014)
